# Where a chain is given by its changes, count along the chain named.
# B1: Tocilizumab (antibody, human IgG1, kappa, V domains shown)
# VH: QVQLQESGPGLVRPSQTLSLTCTVSGYSITSDHAWSWVRQPPGRGLEWIGYISYSGITTYNPSLKSRVTMLRDTSKNQFSLRLSSVTAADTAVYYCARSLARTTAMDYWGQGSLVTVSS
# VL: DIQMTQSPSSLSASVGDRVTITCRASQDISSYLNWYQQKPGKAPKLLIYYTSRLHSGVPSRFSGSGSGTDFTFTISSLQPEDIATYYCQQGNTLPYTFGQGTKVEIKR
# notes: In house made; also called benchmark; Actemra
# B2: mouse anti-IL6R monoclonal antibody 1A3 (antibody, V domains shown)
# VH: QVQLQQPGAELVKPGASVKLSCKASGYTFTSYWMHWVKQRPAQGLEWIGEINPSNGRTNFNEKFKTKATLTVDKSSNTAYMQLSSLTSEDSAVYSCLRLNTHYVFDYWGQGTTLTVSS
# VL: EIVLTQSPTTMAASPGEKITITCSASSSISSNYLHWYQQKPGFSPKLLISRTSNLASGVPTRFSGSGSGTSYSLTIGTMEAGDVATYYCQQGSGIPFTFGSGTKLEIK
# notes: Mouse hybridoma mAb purified on Protein A
# B3: mouse anti-IL6R monoclonal antibody 1B5 (antibody, V domains shown)
# VH: B2 VH with A42G, F60Y, K63N, T66S, N77S, S95Y, L97A
# VL: B2 VL with T10I, M11L, I21F, A25V, S50Y, T61A, G82E
# notes: Mouse hybridoma mAb
# B4: humanized antibody hu1H7-V5 (antibody, human IgG1, kappa, V domains shown)
# VH: QVQLVQSGAEVKKPGASVKVSCKASGYTFTNYWMHWVRQAPGQGLEWIGEINPTNGRTNYNENFKSRVTLTVDTSTSTVYMELSSLRSEDTAVYYCARLNTHYVFDSWGQGTLVTVSS
# VL: EIVLTQSPGTLSLSPGERATLSCSVSSSISSNYLHWYQQKPGLSPRLLISRTSTLASGIPARFSGSGSGTEYTLTISRMQSEDFAVYYCQQGSGIPFTFGQGTKLEIKR
# notes: Human IgG1 / kappa
# B5: mouse anti-IL6R monoclonal antibody 1H7 (antibody, V domains shown)
# VH: QVQLQQPGTELVKPGASVKLSCKASGYTFTNYWMHWVKQRPGQGLDWIGEINPTNGRTNYNENFKSKATLTVDKSSSTAYMQLSSLTSEDSAVYYCARLNTHYVFDSWGQGTTLTLSS
# VL: B2 VL with M11L, I21F, A25V, N54T, T61A, G82E, I107L
# notes: Mouse hybridoma mAb
# B6: Chimeric 1H7 (antibody, human IgG1, kappa, V domains shown)
# VH: B5 VH
# VL: EIVLTQSPTTLAASPGEKITFTCSVSSSISSNYLHWYQQKPGFSPKLLISRTSTLASGVPARFSGSGSGTSYSLTIGTMEAEDVATYYCQQGSGIPFTFGSGTKLELKR
# notes: Mouse variable regions on human IgG1 / human kappa constant regions; also called chimeric antibody 1H7
# B7: mouse anti-IL6R monoclonal antibody 1H9 (antibody, V domains shown)
# VH: QVQLQQPGAELVKPGASVKLSCKASGYTFTSYWMHWVKLRPGQGLEWIGEINPTNGRTNYYEKFKNRATLTADKSSSTAYMQLSSLTFEDSAVYFCAKFHYSRWYFDVWGTGTTVTVSS
# VL: DIVMTQSQKFMSTSVGDRVSITCKASQNVGTAVVWYQQKPGQSPKLLINPASNRYTGVPDRFTGSGSGTDFTLTISNMQSEDLADYFCQQYSSYPLTFGAGTKLELK
# notes: Mouse hybridoma mAb
# B8: mouse anti-IL6R monoclonal antibody 3C2 (antibody, V domains shown)
# VH: B5 VH with N31T, M34I, D46E, T54S, N63H, Y80S, E89A, L116V
# VL: B2 VL with S50Y, R62H, G82E
# notes: Mouse hybridoma mAb
# B9: mouse anti-IL6R monoclonal antibody 1G1 (antibody, V domains shown)
# VH: B5 VH with T9A, N31S, Q39V, D46E, N63D, D73E, K74S, L83F, S107Y, L116V
# VL: B2 VL with T10I, M11L, I21F, A25V, S50Y, T61A, G82E
# notes: Mouse hybridoma mAb
# Target: T1, human IL6R expressed on cell surface (human, UniProt P08887 20-468)
# T1 construct: whole, on cells; also called cell surface human IL6R; U266 cells expressing human IL6R
# T1 sequence (looked up): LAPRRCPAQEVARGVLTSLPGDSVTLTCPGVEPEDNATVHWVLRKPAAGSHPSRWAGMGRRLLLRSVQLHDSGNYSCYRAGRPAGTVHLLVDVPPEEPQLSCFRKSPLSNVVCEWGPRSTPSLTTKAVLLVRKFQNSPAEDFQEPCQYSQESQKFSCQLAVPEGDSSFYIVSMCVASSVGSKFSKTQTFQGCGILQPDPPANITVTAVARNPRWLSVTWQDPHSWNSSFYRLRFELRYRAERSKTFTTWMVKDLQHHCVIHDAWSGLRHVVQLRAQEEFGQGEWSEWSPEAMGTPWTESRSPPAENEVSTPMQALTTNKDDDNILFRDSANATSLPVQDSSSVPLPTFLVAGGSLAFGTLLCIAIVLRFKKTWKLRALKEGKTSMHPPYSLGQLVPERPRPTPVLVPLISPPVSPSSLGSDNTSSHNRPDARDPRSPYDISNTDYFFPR
# Assay: cell-based binding FACS on U266 cells
# Experimental: The binding activities of the mouse anti-IL6R antibodies to IL6R expressed on cell surface were tested by flow cytometry (FACS). Briefly, human myeloma cells U266 (ATCC® TIB-196™) were harvested from cell culture flasks, washed twice and resuspended in phosphate buffered saline (PBS) containing 2% v/v Fetal Bovine Serum (FACS buffer). 2×10⁵ U266 cells per well were incubated in 96 well-plates with 100 μl of the anti-IL6R antibodies or controls at various concentrations (starting at 40 nM with a 3-fold serial dilution in FACS buffer) for 40 minutes on ice. Cells were washed twice with FACS buffer, and added with 100 μL/well R-Phycoerythrin AffiniPure F(ab′)₂ Fragment Goat Anti-Mouse IgG (H+L) (1:1000 dilution in FACS buffer, Jackson ImmunoResearch Laboratories, Inc., Cat #115-116-146). Following an incubation of 40 minutes at 4° C. in dark, cells were washed three times and resuspended in FACS buffer. Fluorescence was measured using a Becton Dickinson FACS Canto II-HTS equipment. Data was analyzed using Graphpad Prism software and EC₅₀ values were reported.
row,Binder,EC50 [nM]
1,B1,1.7
2,B2,0.229
3,B3,0.204

# Target: T2, macaca IL6R-his protein (macaca mulatta)
# T2 chain: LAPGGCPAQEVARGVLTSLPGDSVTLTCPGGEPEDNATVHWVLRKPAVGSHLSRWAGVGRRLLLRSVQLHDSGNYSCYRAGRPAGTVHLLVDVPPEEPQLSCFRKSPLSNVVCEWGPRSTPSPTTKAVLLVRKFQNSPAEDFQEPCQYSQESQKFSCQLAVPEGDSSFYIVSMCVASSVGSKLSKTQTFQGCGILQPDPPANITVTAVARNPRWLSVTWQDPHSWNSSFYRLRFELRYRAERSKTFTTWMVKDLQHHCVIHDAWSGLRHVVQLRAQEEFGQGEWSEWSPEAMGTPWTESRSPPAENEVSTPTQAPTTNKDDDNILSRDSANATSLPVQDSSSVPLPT
# Assay: indirect ELISA on plate-coated macaca IL6R-his
row,Binder,EC50 [nM]
1,B4,0.242
2,B1,0.201
3,B5,0.147
4,B6,0.227

# Target: T3, human IL6R-Fc protein (human, biotin-labeled in the ELISAs (sites not given))
# T3 construct: In house made; also called biotin-labeled human IL6R-Fc protein
# Assay: ligand blocking ELISA: antibody pre-incubated with biotin-labeled human IL6R-Fc, added to plate-coated human IL6 (blocked ligand: human IL6)
# Experimental: The next day, anti-IL6R antibodies or controls were diluted with biotin labeled human IL6R-Fc protein (prepared in house, SEQ ID NO: 43, 39.5 ng/ml in 2.5% w/v non-fatty milk in PBST), starting at 100 nM with a 4-fold serial dilution, and incubated at room temperature for 40 minutes. […] Plates were washed for 4 times using wash buffer, and added and incubated with 100 μl/well of streptavidin conjugated HRP (1:10000 dilution in PBST buffer, Jackson ImmunoResearch Laboratories, Inc., Cat #016-030-084) for 40 minutes at 37° C. Plates were washed again using wash buffer. Finally, TMB was added and the reaction was stopped using 1M H₂SO₄. The absorbance was read on a microplate reader using dual wavelength mode with 450 nm for TMB and 630 nm as the reference wavelength, and then the OD (450-630) values were plotted against antibody concentration. Data was analyzed using Graphpad Prism software and IC₅₀ values were reported.
row,Binder,IC50 [nM]
1,B7,1.05
2,B1,2.54
3,B5,0.601

# Target: T3, human IL6R-Fc protein
# Assay: benchmark blocking ELISA: antibody pre-incubated with biotin-labeled human IL6R-Fc, added to plate-coated Tocilizumab (competitor: Tocilizumab)
# Experimental: ELISA plates were washed once with wash buffer (PBS+0.05% v/v Tween-20, PBST) and then blocked with 200 μl/well blocking buffer (5% w/v non-fatty milk in PBST) overnight at 4° C.
# The next day, the anti-IL6R antibodies of the disclosure or controls were diluted with biotin labeled human IL6R-Fc protein (SEQ ID NO: 43, 13.6 ng/ml in 2.5% w/v non-fatty milk in PBST), starting at 100 nM with a 5-fold serial dilution, and incubated at room temperature for 40 minutes. […] After incubation at 37° C. for 40 minutes, plates were washed 4 times using wash buffer. Then streptavidin conjugated HRP was added, and the plates were incubated for 40 minutes at 37° C. The plates were finally washed using wash buffer, and added with TMB. The reaction was stopped using 1M […], and the absorbance was read on a microplate reader using dual wavelength mode with 450 nm for TMB and 630 nm as the reference wavelength. The OD (450-630) values were plotted against antibody concentration. Data was analyzed using Graphpad Prism software and IC₅₀ values were reported.
row,Binder,IC50 [nM]
1,B1,2.23
2,B8,0.708
3,B9,0.481

# — patent US20230167182A1 (BIOSION, published 2023)
